For the experiment, the target named is T1, full-length human Gasdermin D (human, UniProt P57764 1-484).
T1 construct: Gasdermin D, human, UniProt P57764, 484 residues (53 kDa); His6-SUMO tag removed with Ulp1 protease and anion exchange; also called hGSDMD; GSDMD; source: E. coli BL21 (DE3) Gold, purified (HisTrap, Ulp1 cleavage, anion exchange, Superdex 75)
T1 sequence (looked up): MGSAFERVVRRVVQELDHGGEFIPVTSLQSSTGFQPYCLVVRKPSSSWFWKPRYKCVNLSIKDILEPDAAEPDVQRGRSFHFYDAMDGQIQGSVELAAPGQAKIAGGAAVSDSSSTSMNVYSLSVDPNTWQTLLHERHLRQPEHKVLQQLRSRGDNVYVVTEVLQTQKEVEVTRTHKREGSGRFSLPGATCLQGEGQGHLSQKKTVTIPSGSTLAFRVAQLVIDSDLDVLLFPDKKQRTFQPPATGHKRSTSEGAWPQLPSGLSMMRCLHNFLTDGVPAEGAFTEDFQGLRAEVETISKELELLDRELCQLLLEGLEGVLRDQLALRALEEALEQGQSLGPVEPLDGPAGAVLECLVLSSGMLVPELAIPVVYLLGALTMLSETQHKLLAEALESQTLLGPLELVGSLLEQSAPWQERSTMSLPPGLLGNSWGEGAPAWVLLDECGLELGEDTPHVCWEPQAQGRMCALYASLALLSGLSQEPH
Kind of experiment: native gel or EMSA; native-PAGE, 12% polyacrylamide, 150 V, 25 mM Tris-HCl, 192 mM glycine, pH 8.3; Caspase-1 alone (40 uM), GSDMD alone (40 uM), GSDMD/Caspase-1 at 1:1 and 2:1 equivalents, with and without 20 mM NaTDB. As to conditions: both partners purified. On the technique in general: A gel shift assay detects complexes by their altered migration in electrophoresis.

B1: human Caspase-1 (C285A) p20/p10 dimer (complex)
chain 1: NPAMPTSSGSEGNVKLCSLEEAQRIWKQKSAEIYPIMDKSSRTRLALIICNEEFDSIPRRTGAEVDITGMTMLLQNLGYSVDVKKNLTASDMTTELEAFAHRPEHKTSDSTFLVFMSHGIREGICGKKHSEQVPDILQLNAIFNMLNTKNCPSLKDKPKVIIIQAARGDSPGVVWFKD
chain 2: AIKKAHIEKDFIAFCSSTPDNVSWRHPTMGSVFIGRLIEHMQEYACSCDVEEIFRKVRFSFEQPDGRAQMPTTERVTLTRCFYLFPGH
notes: peptides 279-286 and 287-297 are assigned to it; Caspase-1 p10 subunit (p10 fragment), human; peptides 342-352, 375-383 and 384-391 are assigned to it; Polycistronic vector encoding an N-terminal His-tag; also called hCaspase-1 (C285A); protease C285A
In the case of B1, the binding result is reported as “binds”.

The record behind these values is publication PMC10369405 (JACS Au, 2023).
